Changes are numbered by the printed parent chain.

Sequences and labels used below:
T1: MdNAC104 (Malus domestica (apple)?, UniProt D9ZJ88 1-204)
T1 sequence: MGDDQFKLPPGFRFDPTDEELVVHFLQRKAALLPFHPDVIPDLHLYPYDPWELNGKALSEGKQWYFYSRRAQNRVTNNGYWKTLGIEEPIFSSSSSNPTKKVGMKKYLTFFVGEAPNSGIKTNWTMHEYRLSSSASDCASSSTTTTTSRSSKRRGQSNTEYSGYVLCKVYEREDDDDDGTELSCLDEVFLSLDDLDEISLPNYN

B1: MdGAD1 mutant probe 3 (dsDNA)
DNA 1: AAAAAATGGGGCAAAATGGGCTTCACTGTC
DNA 2: GACAGTGAAGCCCATTTTGCCCCATTTTTT
B2: MdGAD1 mutant probe 2 (dsDNA)
DNA 1: CAAACCATTTGCAAAATCCTTAAAGCGATT
DNA 2: AATCGCTTTAAGGATTTTGCAAATGGTTTG
B3: MdGAD1 mutant probe 1 (dsDNA)
DNA 1: GCGCTGCACCTAAAAATTCCATTTCTGGAC
DNA 2: GTCCAGAAATGGAATTTTTAGGTGCAGCGC
B4: MdGAD1 probe 1 (dsDNA)
DNA 1: B3 DNA 1 with A13C, A15C, A16G
DNA 2: B3 DNA 2 with T15C, T16G, T18G
B5: MdALMT13 probe 4 (dsDNA)
DNA 1: ATGTATATATAAACACGATATCTCCCTTCC
DNA 2: GGAAGGGAGATATCGTGTTTATATATACAT
B6: MdGAD1 probe 3 (dsDNA)
DNA 1: B1 DNA 1 with A13C, A15C, A16G
DNA 2: B1 DNA 2 with T15C, T16G, T18G
B7: MdGAD1 probe 2 (dsDNA)
DNA 1: B2 DNA 1 with A13C, A15C, A16G
DNA 2: B2 DNA 2 with T15C, T16G, T18G
B8: MdALMT13 probe 2 (dsDNA)
DNA 1: CTTATTTCAAAAACACGGGTGAACAGTAAA
DNA 2: TTTACTGTTCACCCGTGTTTTTGAAATAAG
B9: MdALMT13 probe 3 (dsDNA)
DNA 1: CTTTTGCATTCAGCACGCACTCGCAAAACC
DNA 2: GGTTTTGCGAGTGCGTGCTGAATGCAAAAG

The target in one data set is T1, MdNAC104. Briefly: EMSA; LightShift Chemiluminescent EMSA Kit (Thermo) per manufacturer; buffer, salt, pH and temperature not stated. Conditions: protein: recombinant; tags: His (pET-32a vector); blunt. On the technique in general: Mobility shift assays separate free from complexed probe on a gel.
In the case of B1, the binding result was “no binding”.

Regarding B2, the binding result was “no binding”.

B3: the binding result is “no binding”.

Staying with this data set, now noted: protein: recombinant; tags: His (pET-32a vector); label: 5' biotin; blunt.
Regarding B4, the binding result is recorded as “binds”.

For the molecule B5, the binding result is on record as “binds”.

Take B6: the binding result is listed as “binds”.

Consider B7, for which the binding result was “binds”.

Regarding B8, the binding result is reported as “binds”.

On to B9, for which the binding result is “binds”.

(Values after PMC11425205, “MdSINA2‐MdNAC104 Module Regulates Apple Alkaline Resistance by Affecting γ‐Aminobutyric Acid Synthesis and Transport”.)
